Test results: article PMC2115445
pKd, pKi: −log10 of the molar value. Several values for one entry are separate records, joined by “and”; a condition that tells them apart may be missing. Identical values can stand only once. One block for each substance: values may come before it.

Legend:
[1] = molecular target: human erythrocyte ankyrin (human) (UniProt P16157); assay: co-sedimentation
[2] = molecular target: human erythrocyte ankyrin (human) (UniProt P16157); assay: pull-down
[3] = molecular target: Na,K-ATPase (alpha-beta heterodimer) of dog kidney membranes (dog (endogenous in canine kidney)) (UniProt P50997); assay: co-sedimentation

Sequence of human erythrocyte ankyrin (human) (P16157 whole entry): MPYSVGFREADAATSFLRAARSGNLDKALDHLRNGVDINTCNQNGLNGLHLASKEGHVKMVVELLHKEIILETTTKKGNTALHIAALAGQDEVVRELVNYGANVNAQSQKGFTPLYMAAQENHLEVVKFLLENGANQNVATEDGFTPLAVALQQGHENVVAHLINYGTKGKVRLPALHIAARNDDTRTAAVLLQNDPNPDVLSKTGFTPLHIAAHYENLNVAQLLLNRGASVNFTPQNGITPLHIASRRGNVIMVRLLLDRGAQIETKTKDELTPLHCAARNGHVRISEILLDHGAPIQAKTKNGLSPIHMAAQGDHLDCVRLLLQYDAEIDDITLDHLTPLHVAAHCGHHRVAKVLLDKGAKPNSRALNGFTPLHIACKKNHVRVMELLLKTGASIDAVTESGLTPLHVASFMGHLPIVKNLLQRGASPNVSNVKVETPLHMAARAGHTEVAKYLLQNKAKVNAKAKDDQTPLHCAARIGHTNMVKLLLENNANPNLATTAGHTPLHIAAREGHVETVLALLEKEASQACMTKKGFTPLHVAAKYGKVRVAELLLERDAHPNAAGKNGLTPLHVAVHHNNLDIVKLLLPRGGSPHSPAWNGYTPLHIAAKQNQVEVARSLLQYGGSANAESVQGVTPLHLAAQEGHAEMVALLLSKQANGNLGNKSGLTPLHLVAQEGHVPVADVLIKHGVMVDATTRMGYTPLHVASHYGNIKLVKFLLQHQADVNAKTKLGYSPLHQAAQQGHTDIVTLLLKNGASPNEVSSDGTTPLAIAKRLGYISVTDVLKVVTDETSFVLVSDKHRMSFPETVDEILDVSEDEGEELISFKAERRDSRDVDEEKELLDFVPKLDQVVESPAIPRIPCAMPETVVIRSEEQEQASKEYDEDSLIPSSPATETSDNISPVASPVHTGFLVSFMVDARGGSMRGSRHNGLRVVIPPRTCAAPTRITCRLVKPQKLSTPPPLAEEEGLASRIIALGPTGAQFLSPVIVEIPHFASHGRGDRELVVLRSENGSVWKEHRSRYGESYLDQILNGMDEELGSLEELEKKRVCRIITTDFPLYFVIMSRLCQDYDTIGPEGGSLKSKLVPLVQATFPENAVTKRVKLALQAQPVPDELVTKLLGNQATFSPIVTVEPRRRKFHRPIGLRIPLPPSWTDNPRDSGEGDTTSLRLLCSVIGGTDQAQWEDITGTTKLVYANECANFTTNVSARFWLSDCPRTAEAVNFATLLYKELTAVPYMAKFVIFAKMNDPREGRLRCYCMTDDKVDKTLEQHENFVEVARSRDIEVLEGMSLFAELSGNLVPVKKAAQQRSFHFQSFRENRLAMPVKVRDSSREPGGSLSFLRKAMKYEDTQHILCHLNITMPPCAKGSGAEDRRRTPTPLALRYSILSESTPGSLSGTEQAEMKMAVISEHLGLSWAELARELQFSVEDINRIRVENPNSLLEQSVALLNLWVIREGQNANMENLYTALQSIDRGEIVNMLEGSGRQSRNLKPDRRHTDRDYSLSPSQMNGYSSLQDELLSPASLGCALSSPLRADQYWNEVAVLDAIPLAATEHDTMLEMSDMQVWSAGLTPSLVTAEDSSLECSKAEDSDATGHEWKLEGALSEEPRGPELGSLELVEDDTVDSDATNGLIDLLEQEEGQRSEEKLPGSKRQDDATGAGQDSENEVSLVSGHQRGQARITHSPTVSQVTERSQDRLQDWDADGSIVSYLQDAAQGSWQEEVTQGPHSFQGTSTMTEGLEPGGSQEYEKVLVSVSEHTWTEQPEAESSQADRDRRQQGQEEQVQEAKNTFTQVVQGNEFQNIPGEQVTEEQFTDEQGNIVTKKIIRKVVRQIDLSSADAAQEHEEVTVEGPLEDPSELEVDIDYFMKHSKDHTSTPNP

pKi [1]: 5.46
Substance: 43-kD cytoplasmic domain of human erythrocyte band 3 (domain or fragment)

fold bound to immobilized ankyrin against immobilized BSA [2]: 17 fold
Substance: Na,K-ATPase (alpha-beta heterodimer) of dog kidney membranes (from UniProt P50997 1-1021; P06583 1-303) (complex)

pKd [3]: 5.59
stoichiometry N (molecules of Na,K-ATPase per ankyrin) [3]: 3.5 to 4.8
stoichiometry N ([3]; scale: molecules of Na,K-ATPase alpha-beta heterodimer per ankyrin): 2.93 and 5.05
Substance: human erythrocyte ankyrin (from UniProt P16157 1-1881) (natural protein)
